Measurements as given in article PMC11417369, “DNA sequence and chromatin differentiate sequence-specific transcription factor binding in the human malaria parasite Plasmodium falciparum”.

T1: PF3D7_0420300 D1 (Plasmodium falciparum, UniProt Q8I1N6 1956-2015)
T1 sequence: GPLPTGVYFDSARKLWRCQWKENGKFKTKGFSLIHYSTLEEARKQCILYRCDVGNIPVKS

B1: CACACA_site8016 (dsDNA)
DNA 1: TTAGGTAGAAAAAAGACACACACATTATATATATAT
DNA 2: ATATATATATAATGTGTGTGTCTTTTTTCTACCTAA
B2: CACACA_site3507 (dsDNA)
DNA 1: TATATAAACCCGTACACACACATATATGTATATATA
DNA 2: TATATATACATATATGTGTGTGTACGGGTTTATATA
B3: CACACA_site8576 (dsDNA)
DNA 1: TTCTTACATAAAATATCACACACATAAAAAAACAAT
DNA 2: ATTGTTTTTTTATGTGTGTGATATTTTATGTAAGAA
B4: CACACA_site2478 (dsDNA)
DNA 1: TAAACAGACATATAAACACACATATAAACCGACATA
DNA 2: TATGTCGGTTTATATGTGTGTTTATATGTCTGTTTA
B5: CACACA_site7392 (dsDNA)
DNA 1: GGTTCATATCTTAACACACACATACATATTATAGAT
DNA 2: ATCTATAATATGTATGTGTGTGTTAAGATATGAACC
B6: CACACA_site3334 (dsDNA)
DNA 1: ATTTTATTTTTTCACACACACATATATATATATATA
DNA 2: TATATATATATATATGTGTGTGTGAAAAAATAAAAT
B7: CACACA_site4960 (dsDNA)
DNA 1: TTAATAACAAAATAAACACACATATATAAATACCCA
DNA 2: TGGGTATTTATATATGTGTGTTTATTTTGTTATTAA
B8: CACACA_site2768 (dsDNA)
DNA 1: TAGAACAAATAAAACACACACATATATATATATATG
DNA 2: CATATATATATATATGTGTGTGTTTTATTTGTTCTA
B9: CACACA_site3424 (dsDNA)
DNA 1: GATGAGGACAAACACACACACATAAGTTGATACATA
DNA 2: TATGTATCAACTTATGTGTGTGTGTTTGTCCTCATC
B10: CACACA_site8579 (dsDNA)
DNA 1: AATATTTATAAATTTACACACACACCGGTGAACATA
DNA 2: TATGTTCACCGGTGTGTGTGTAAATTTATAAATATT
B11: CACACA_site2570 (dsDNA)
DNA 1: AAAAGATAATTATGCACACACACACCCCCACCCAAC
DNA 2: GTTGGGTGGGGGTGTGTGTGTGCATAATTATCTTTT
B12: CACACA_site7096 (dsDNA)
DNA 1: TACCTATATACATACACACACATATAACCAATGTAG
DNA 2: CTACATTGGTTATATGTGTGTGTATGTATATAGGTA
B13: CACACA_site377 (dsDNA)
DNA 1: AGGTAGAAAAAAGACACACACATTATGTATATATAT
DNA 2: ATATATATACATAATGTGTGTGTCTTTTTTCTACCT
B14: CACACA_site1730 (dsDNA)
DNA 1: AAAATTTTTTACTTTACACACATTTTGTATATTTTG
DNA 2: CAAAATATACAAAATGTGTGTAAAGTAAAAAATTTT
B15: CACACA_site1529 (dsDNA)
DNA 1: AACTATAAAAAAAATACACACATTACCAAAAATATA
DNA 2: TATATTTTTGGTAATGTGTGTATTTTTTTTATAGTT
B16: CACACA_site337 (dsDNA)
DNA 1: AGCAGACACCAACACACACACATATATATATATATA
DNA 2: TATATATATATATATGTGTGTGTGTTGGTGTCTGCT
B17: CACACA_site2379 (dsDNA)
DNA 1: ACATAGCAATGTTTCACACACAAGAAAAAATACAAT
DNA 2: ATTGTATTTTTTCTTGTGTGTGAAACATTGCTATGT
B18: CACACA_site6268 (dsDNA)
DNA 1: AACATATTTATATACACACACATATTTATATGAAAT
DNA 2: ATTTCATATAAATATGTGTGTGTATATAAATATGTT
B19: CACACA_site2985 (dsDNA)
DNA 1: AATATTTATAAAGACACACAAACAAAAAGGATAAAA
DNA 2: TTTTATCCTTTTTGTTTGTGTGTCTTTATAAATATT
B20: CACACA_site5943 (dsDNA)
DNA 1: AAATAAATATATAATACACACAAAAATATAAAATGG
DNA 2: CCATTTTATATTTTTGTGTGTATTATATATTTATTT
B21: CACACA_site1517 (dsDNA)
DNA 1: TATGAAATTATAATTACACACAGGAAAATAAAATGT
DNA 2: ACATTTTATTTTCCTGTGTGTAATTATAATTTCATA
B22: CACACA_site4213 (dsDNA)
DNA 1: GGAATAGTAATATATACACACAAATACAGATATATA
DNA 2: TATATATCTGTATTTGTGTGTATATATTACTATTCC
B23: CACACA_site9081 (dsDNA)
DNA 1: TTTTACTAAATATATACACACATTATACATATATAT
DNA 2: ATATATATGTATAATGTGTGTATATATTTAGTAAAA
B24: CACACA_site8191 (dsDNA)
DNA 1: TATTATATTATACATACACACCCATATAATATGTTT
DNA 2: AAACATATTATATGGGTGTGTATGTATAATATAATA
B25: CACACA_site6321 (dsDNA)
DNA 1: AAATTAATTAAATATACACACATATATAGATATATA
DNA 2: TATATATCTATATATGTGTGTATATTTAATTAATTT
B26: CACACA_site3513 (dsDNA)
DNA 1: CAATTACGCAGGAATGCACACAATAATAAAAAAAAT
DNA 2: ATTTTTTTTATTATTGTGTGCATTCCTGCGTAATTG
B27: CACACA_site4786 (dsDNA)
DNA 1: AATATACACCCGTGTACACAAATATTTACAAAACGT
DNA 2: ACGTTTTGTAAATATTTGTGTACACGGGTGTATATT
B28: CACACA_site3144 (dsDNA)
DNA 1: ATAAAATATATGAAGACACACATAACATCATATTTT
DNA 2: AAAATATGATGTTATGTGTGTCTTCATATATTTTAT
B29: CACACA_site5414 (dsDNA)
DNA 1: AACAAGTTGCATGGTGCACACATGTATTTATATCTA
DNA 2: TAGATATAAATACATGTGTGCACCATGCAACTTGTT
B30: CACACA_site1962 (dsDNA)
DNA 1: TTTTTAACATATCATACACACAACAACTTTTTATAG
DNA 2: CTATAAAAAGTTGTTGTGTGTATGATATGTTAAAAA
B31: CACACA_site55 (dsDNA)
DNA 1: CTCAATATTATTACTACACACAAATTAATATTTTCC
DNA 2: GGAAAATATTAATTTGTGTGTAGTAATAATATTGAG
B32: CACACA_site8689 (dsDNA)
DNA 1: AAAAAAAAAACACGCGCACACACACCCACCCACCCA
DNA 2: TGGGTGGGTGGGTGTGTGTGCGCGTGTTTTTTTTTT
B33: CACACA_site7314 (dsDNA)
DNA 1: CAATGTTAACATATTACACACATATGTATTTATAAC
DNA 2: GTTATAAATACATATGTGTGTAATATGTTAACATTG
B34: CACACA_site3328 (dsDNA)
DNA 1: TGTATTTATAGCAATACACACATAACAATAAATATA
DNA 2: TATATTTATTGTTATGTGTGTATTGCTATAAATACA
B35: CACACA_site2544 (dsDNA)
DNA 1: TATTATTTATTATATGCACACATCGAACTATTATTT
DNA 2: AAATAATAGTTCGATGTGTGCATATAATAAATAATA
B36: CACACA_site8829 (dsDNA)
DNA 1: TATGTAAAAAATTTAACACACACATATATATATATA
DNA 2: TATATATATATATGTGTGTGTTAAATTTTTTACATA
B37: CACACA_site1453 (dsDNA)
DNA 1: ATATTATGTGATTGTGCACACTGGAGATTTTTTTTA
DNA 2: TAAAAAAAATCTCCAGTGTGCACAATCACATAATAT
B38: CACACA_site407 (dsDNA)
DNA 1: ATATTATATTATATAACACACATTTTTCATAACACT
DNA 2: AGTGTTATGAAAAATGTGTGTTATATAATATAATAT
B39: CACACA_site2604 (dsDNA)
DNA 1: GAAAATATTACATACACGCACACATTAATATATTTA
DNA 2: TAAATATATTAATGTGTGCGTGTATGTAATATTTTC
B40: CACACA_site254 (dsDNA)
DNA 1: TTTAATTATAAGATAACACACAAAAAAAATAAAATA
DNA 2: TATTTTATTTTTTTTGTGTGTTATCTTATAATTAAA
B41: CACACA_site2997 (dsDNA)
DNA 1: CATAATTATGCAATTGCACACAACTATCATTTTTTT
DNA 2: AAAAAAATGATAGTTGTGTGCAATTGCATAATTATG
B42: CACACA_site6753 (dsDNA)
DNA 1: GAAGTAATTTCATATACACACATATACATACATACA
DNA 2: TGTATGTATGTATATGTGTGTATATGAAATTACTTC
B43: CACACA_site478 (dsDNA)
DNA 1: AAAAAAAAAAAAAAAACACACAAATCATAAATAAAT
DNA 2: ATTTATTTATGATTTGTGTGTTTTTTTTTTTTTTTT
B44: CACACA_site4748 (dsDNA)
DNA 1: GCCTTTTAGTATTTCACACACGTAAATGAGTATATC
DNA 2: GATATACTCATTTACGTGTGTGAAATACTAAAAGGC

Target: T1, PF3D7_0420300 D1
Assay: gcPBM; about 25 ug protein; PBS, 1% milk, 0.2 mg/ml BSA, salmon testes DNA, 0.03% Triton X-100
Settings: tags: N-terminal GST (pGEX-4T-1), kept; label: surface-attached array probe

Binder	binding signal
B1	9.94 ln median PBM intensity, better of two orientations
B2	9.93 ln median PBM intensity, better of two orientations
B3	9.93 ln median PBM intensity, better of two orientations
B4	9.92 ln median PBM intensity, better of two orientations
B5	9.92 ln median PBM intensity, better of two orientations
B6	9.91 ln median PBM intensity, better of two orientations
B7	9.9 ln median PBM intensity, better of two orientations
B8	9.9 ln median PBM intensity, better of two orientations
B9	9.89 ln median PBM intensity, better of two orientations
B10	9.89 ln median PBM intensity, better of two orientations
B11	10.8 ln median PBM intensity, better of two orientations
B12	9.88 ln median PBM intensity, better of two orientations
B13	9.87 ln median PBM intensity, better of two orientations
B14	9.87 ln median PBM intensity, better of two orientations
B15	9.86 ln median PBM intensity, better of two orientations
B16	9.86 ln median PBM intensity, better of two orientations
B17	9.85 ln median PBM intensity, better of two orientations
B18	9.85 ln median PBM intensity, better of two orientations
B19	9.84 ln median PBM intensity, better of two orientations
B20	9.84 ln median PBM intensity, better of two orientations
B21	9.83 ln median PBM intensity, better of two orientations
B22	9.83 ln median PBM intensity, better of two orientations

Binder	binding signal
B23	9.49 ln median PBM intensity, better of two orientations
B24	9.49 ln median PBM intensity, better of two orientations
B25	9.5 ln median PBM intensity, better of two orientations
B26	9.51 ln median PBM intensity, better of two orientations
B27	9.51 ln median PBM intensity, better of two orientations
B28	9.52 ln median PBM intensity, better of two orientations
B29	9.53 ln median PBM intensity, better of two orientations
B30	9.54 ln median PBM intensity, better of two orientations
B31	9.54 ln median PBM intensity, better of two orientations
B32	10.7 ln median PBM intensity, better of two orientations
B33	9.55 ln median PBM intensity, better of two orientations
B34	9.56 ln median PBM intensity, better of two orientations
B35	9.56 ln median PBM intensity, better of two orientations
B36	9.57 ln median PBM intensity, better of two orientations
B37	9.58 ln median PBM intensity, better of two orientations
B38	9.58 ln median PBM intensity, better of two orientations
B39	9.59 ln median PBM intensity, better of two orientations
B40	9.6 ln median PBM intensity, better of two orientations
B41	9.61 ln median PBM intensity, better of two orientations
B42	9.62 ln median PBM intensity, better of two orientations
B43	9.63 ln median PBM intensity, better of two orientations
B44	9.63 ln median PBM intensity, better of two orientations
